Source: patent publication EP2385124A2

Biological target: GST-DLG1 PDZ domains 1-2 fusion protein (human) (UniProt Q12959)
Assay: competition G assay, 100 uM unlabeled 8-mer against 20 uM biotin-labeled AA2L on GST-DLG1

Which percent inhibition does the source give for “eight amino acid CLASP-2 peptide MTSSSSVV (unlabeled)” here?
Its percent inhibition is greater than 50%.
